Data on six molecules can be found in article PMC4919469, “Investigation of the Interaction between Cdc42 and Its Effector TOCA1” (The Journal of Biological Chemistry, 2016).

The chains are these.
T1: TOCA1 HR1-SH3 (residues 330–545) (Xenopus tropicalis, UniProt Q6GUF4 330-545)
T1 construct: Xenopus tropicalis TOCA1, C-terminally extended HR1 construct, residues 330-545, in pMAT10-P; also called HR1-SH3 protein; TOCA1 330–545; source: E. coli, purified (Ni-NTA, 3C protease cleavage, gel filtration); not shown: His, N-terminal, cleaved; MBP, N-terminal, cleaved
T1 sequence (looked up): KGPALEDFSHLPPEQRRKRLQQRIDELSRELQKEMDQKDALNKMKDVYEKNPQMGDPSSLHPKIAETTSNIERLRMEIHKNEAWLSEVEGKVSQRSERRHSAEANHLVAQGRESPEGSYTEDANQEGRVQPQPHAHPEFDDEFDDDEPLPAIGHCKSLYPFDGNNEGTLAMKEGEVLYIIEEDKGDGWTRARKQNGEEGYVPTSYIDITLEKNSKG

B1: N-WASP G protein-binding domain (GBD) (residues 197–255) (domain or fragment, Xenopus tropicalis, UniProt Q6NX29 197-255, looked up)
chain: KKKLTKADIGTPSNFQHIGHVGWDPNTGFDVNNLDPELKKLFDLCGISEAQLKDKETSK
notes: also called N-WASP GBD; N-WASP CRIB domain; source: E. coli BL21-CodonPlus-RIL, purified (glutathione-agarose, 3C protease cleavage, gel filtration); not shown: GST, N-terminal, cleaved
B2: TOCA1 HR1 domain (residues 330–426) with C-terminal His6 tag (domain or fragment, Xenopus tropicalis, UniProt Q6GUF4 330-426, looked up)
chain: KGPALEDFSHLPPEQRRKRLQQRIDELSRELQKEMDQKDALNKMKDVYEKNPQMGDPSSLHPKIAETTSNIERLRMEIHKNEAWLSEVEGKVSQRSE
notes: Xenopus tropicalis TOCA1 HR1 domain, residues 330-426, from cDNA NM_001005148, in pGEX-HisP; also called HR1-His6; C-terminally His-tagged TOCA1 HR1 domain construct; source: E. coli BL21, purified (glutathione-agarose, 3C protease cleavage, gel filtration); not shown: GST, N-terminal, cleaved; His6, C-terminal, kept
B3: TOCA1 HR1 domain (residues 330–426), untagged (domain or fragment, Xenopus tropicalis, UniProt Q6GUF4 330-426, looked up)
chain: B2 chain
notes: Xenopus tropicalis TOCA1 (transducer of Cdc42-dependent actin assembly protein 1) HR1 domain, residues 330-426, from cDNA NM_001005148, in pGEX-6P-1; 15N- or 13C/15N-labelled in some NMR experiments; also called HR1^TOCA1; TOCA HR1 domain; source: E. coli BL21, purified (glutathione-agarose, 3C protease cleavage, gel filtration); not shown: GST, N-terminal, cleaved
B4: FBP17 HR1 domain (residues 385–486) (domain or fragment, Xenopus laevis, UniProt Q6GNV5 385-486, looked up)
chain: LKRGGSTPEDFSNLPPEQRRKKLQQKVDELNKDIQKEIDQRDALTKMRDVYTKNPQMGDAASVGQKLVEIGNNIEKLRVEVQKFEGWLAEVEGRLSARNDSS
notes: Xenopus laevis FBP17 HR1 domain, residues 385-486, from IMAGE clone 5514481, in pGEX-6P-1; also called HR1^FBP17; source: E. coli BL21, purified (glutathione-agarose, 3C protease cleavage, gel filtration); not shown: GST, N-terminal, cleaved
B5: CIP4 HR1 domain (residues 388–481) (domain or fragment, human, UniProt Q15642 388-481, looked up)
chain: TEDFSHLPPEQQRKRLQQQLEERSRELQKEVDQREALKKMKDVYEKTPQMGDPASLEPQIAETLSNIERLKLEVQKYEAWLAEAESRVLSNRGD
notes: also called HR1^CIP4; source: E. coli BL21, purified (glutathione-agarose, 3C protease cleavage, gel filtration); not shown: GST, N-terminal, cleaved
B6: Cdc42Δ7Q61L (domain or fragment)
chain: not shown
notes: Human Cdc42 with seven residues deleted from the C terminus and the mutation Q61L; cloned into pGEX-2T; Loaded with [3H]GTP for SPA and with GMPPNP for NMR; 15N- or 15N/13C-labelled in some NMR experiments; also called truncated Cdc42; Cdc42Δ7Q61L·[3H]GTP; source: E. coli BL21, purified (glutathione-agarose, thrombin cleavage, gel filtration)

Conditions in all cases: both partners purified
In experiment [1] the target is B6. Kind of experiment: scintillation proximity assay; competition; free effector domain titrated into 30 nM Cdc42·[3H]GTP and 30 nM GST-ACK (in Fig. 7B GST-ACK or GST-WASP GBD) immobilised on a fluoromicrosphere; Kd from competition binding isotherms.
Experiment [2] concerns the target B6. Nature of the experiment: scintillation proximity assay; direct binding; 30 nM GST-PAK, GST-ACK or His-tagged TOCA1 construct attached to a fluoromicrosphere via an anti-GST or anti-His antibody; Cdc42·[3H]GTP at increasing concentrations; apparent Kd from a direct binding isotherm.
The target in a further experiment is T2, full-length Cdc42Q61L (human, UniProt P60953 1-191, Q61L).
T2 construct: Human Cdc42, full length, Q61L; cloned into pGEX-6P-1; confirmed as full-length by mass spectrometry; Loaded with [3H]GTP for SPA; also called Cdc42FLQ61L; full-length [3H]GTP·Cdc42; source: E. coli BL21, purified (glutathione-agarose, 3C protease cleavage, gel filtration)
Nature of the experiment: scintillation proximity assay; competition; free effector domain titrated into 30 nM Cdc42·[3H]GTP and 30 nM GST-ACK (in Fig. 7B GST-ACK or GST-WASP GBD) immobilised on a fluoromicrosphere; Kd from competition binding isotherms.

In experiment [3] the target is T1, TOCA1 HR1-SH3 (residues 330–545). The experiment is described as above.

T2 sequence (P60953 whole entry Q61L): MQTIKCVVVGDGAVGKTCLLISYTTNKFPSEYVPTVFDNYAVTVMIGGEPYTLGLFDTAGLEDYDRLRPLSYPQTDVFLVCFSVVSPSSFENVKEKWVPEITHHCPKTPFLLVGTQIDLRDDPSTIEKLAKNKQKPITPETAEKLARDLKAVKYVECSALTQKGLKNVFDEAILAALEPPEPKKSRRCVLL
Sequence of Cdc42Δ7Q61L (P60953 1-184 Q61L): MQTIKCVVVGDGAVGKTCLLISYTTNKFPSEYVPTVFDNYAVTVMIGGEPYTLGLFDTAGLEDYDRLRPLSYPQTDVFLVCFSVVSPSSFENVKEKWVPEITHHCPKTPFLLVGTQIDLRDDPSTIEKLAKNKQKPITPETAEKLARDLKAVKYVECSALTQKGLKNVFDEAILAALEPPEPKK

Regarding B1, the Kd in the experiment with Cdc42Δ7Q61L [1] was 0.037 µM. As to B2, in the experiment with Cdc42Δ7Q61L [2], the Kd is more than 1 µM.

As to B3, the Kd in the experiment with full-length Cdc42Q61L stood at 5.39 µM; in the experiment with Cdc42Δ7Q61L [1] it was 6.05 µM.

B4: in the experiment with full-length Cdc42Q61L, the Kd worked out at 10 µM. On the same count and under the same terms, then B5, with 5 µM. B6 showed a Kd in experiment [3] of 4.6 µM.
